Measured values taken from paper PMC12395305 (2025).
Blank lines part the entries; values can stand above or below the binder they belong to.

Assays:
[1] = target: T1, beta-2 microglobulin (UniProt P61769 21-119); assay: BLI
[2] = target: T1, beta-2 microglobulin; assay: BLI; remark: listed apart in the source
[3] = target: T2, green fluorescent protein (UniProt P42212 2-238 = GFP); assay: SPR
[4] = target: GFP-K162R; assay: SPR
[5] = target: GFP-K41R; assay: SPR
[6] = target: GFP-K131S; assay: SPR
[7] = target: GFP-K140R; assay: SPR
[8] = target: GFP-K166R; assay: SPR
[9] = target: T2, green fluorescent protein; assay: SPR; remark: listed apart in the source

Kd [1]: 105 nM | koff [2]: 0.018 s⁻¹
B1: nanobody 24 (VHH)
VHH: QVQLQESGGGSVQAGGSLRLSCAASGYTDSRYCMAWFRQAPGKEREWVARINSGRDITYYADSVKGRFTFSQDNAKNTVYLQMDSLEPEDTATYYCATDIPLRCRDIVAKGGDGFRYWGQGTQVTVSS

koff [3]: 0.000188 s⁻¹ | Kd [4]: 1.26 nM | koff [4]: 0.000171 s⁻¹ | Kd [5]: 1.16 nM | koff [5]: 0.000174 s⁻¹ | Kd [6]: 1.16 nM | koff [6]: 0.000168 s⁻¹ | Kd [7]: 1.05 nM | koff [7]: 0.000169 s⁻¹ | Kd [8]: 1.11 nM | koff [8]: 0.000175 s⁻¹ | Kd [9]: 1.11 nM
B2: αGFP-S54C (VHH)
VHH: QVQLVESGGALVQPGGSLRLSCAASGFPVNRYSMRWYRQAPGKEREWVAGMSCAGDRSSYEDSVKGRFTISRDDARNTVYLQMNSLKPEDTAVYYCNVNVGFEYWGQGTQVTVSS
